We go through 2 proteins from ChEMBL document CHEMBL2073939, “Export pumps for anionic conjugates encoded by MRP genes” (Adv Enzyme Regul, 1999).

Substrate in data set [1]: CCCCC/C=C\C\C=C/C=C/C=C/[C@@H](SC[C@@H](NC(=O)CC[C@H](N)C(=O)O)C(=O)NCC(=O)O)[C@@H](O)CCCC(=O)O
As to the kind of experiment: cells, lysate or membranes named.

Substrate in data set [2]: Cc1ccc(N(CC(=O)O)CC(=O)O)c(OCCOc2cc(-c3c4cc(Cl)c(=O)cc-4oc4cc(O)c(Cl)cc34)ccc2N(CC(=O)O)CC(=O)O)c1
As to the kind of experiment: TP_TRANSPORTER: uptake in membrane vesicle from MRP1-expressing HeLa cells. The format is functional, cell membranes.

B1: Multidrug resistance-associated protein 1 (Mus musculus) (protein)
chain: MALRSFCSADGSDPLWDWNVTWHTSNPDFTKCFQNTVLTWVPCFYLWSCFPLYFFYLSRHDRGYIQMTHLNKTKTALGFFLWIICWADLFYSFWERSQGVLRAPVLLVSPTLLGITMLLATFLIQLERRKGVQSSGIMLTFWLVALLCALAILRSKIISALKKDAHVDVFRDSTFYLYFTLVLVQLVLSCFSDCSPLFSETVHDRNPCPESSASFLSRITFWWITGMMVHGYRQPLESSDLWSLNKEDTSEEVVPVLVNNWKKECDKSRKQPVRIVYAPPKDPSKPKGSSQLDVNEEVEALIVKSPHKDREPSLFKVLYKTFGPYFLMSFLYKALHDLMMFAGPKILELIINFVNDREAPDWQGYFYTALLFVSACLQTLALHQYFHICFVSGMRIKTAVVGAVYRKALLITNAARKSSTVGEIVNLMSVDAQRFMDLATYINMIWSAPLQVILALYFLWLSLGPSVLAGVAVMILMVPLNAVMAMKTKTYQVAHMKSKDNRIKLMNEILNGIKVLKLYAWELAFQDKVMSIRQEELKVLKKSAYLAAVGTFTWVCTPFLVALSTFAVFVTVDERNILDAKKAFVSLALFNILRFPLNILPMVISSIVQASVSLKRLRIFLSHEELEPDSIERRSIKSGEGNSITVKNATFTWARGEPPTLNGITFSIPEGALVAVVGQVGCGKSSLLSALLAEMDKVEGHVTLKGSVAYVPQQAWIQNDSLRENILFGHPLQENYYKAVMEACALLPDLEILPSGDRTEIGEKGVNLSGGQKQRVSLARAVYSNSDIYLFDDPLSAVDAHVGKHIFEKVVGPMGLLKNKTRILVTHGISYLPQVDVIIVMSGGKISEMGSYQELLDRDGAFAEFLRTYANAEQDLASEDDSVSGSGKESKPVENGMLVTDTVGKHLQRHLSNSSSHSGDTSQQHSSIAELQKAGAKEETWKLMEADKAQTGQVQLSVYWNYMKAIGLFITFLSIFLFLCNHVSALASNYWLSLWTDDPPVVNGTQANRNFRLSVYGALGILQGAAIFGYSMAVSIGGIFASRRLHLDLLYNVLRSPMSFFERTPSGNLVNRFSKELDTVDSMIPQVIKMFMGSLFSVIGAVIIILLATPIAAVIIPPLGLVYFFVQRFYVASSRQLKRLESVSRSPVYSHFNETLLGVSVIRAFEEQERFIHQSDLKVDENQKAYYPSIVANRWLAVRLECVGNCIVLFAALFAVISRHSLSAGLVGLSVSYSLQITAYLNWLVRMSSEMETNIVAVERLKEYSETEKEAPWQIQETAPPSTWPHSGRVEFRDYCLRYREDLDLVLKHINVTIEGGEKVGIVGRTGAGKSSLTLGLFRINESAEGEIIIDGVNIAKIGLHNLRFKITIIPQDPVLFSGSLRMNLDPFSQYSDEEVWMALELAHLKGFVSALPDKLNHECAEGGENLSVGQRQLVCLARALLRKTKILVLDEATAAVDLETDNLIQSTIRTQFEDCTVLTIAHRLNTIMDYTRVIVLDKGEVRECGAPSELLQQRGIFYSMAKDAGLV
For orientation: Km means the substrate concentration at which the rate is half of its maximum. Take B1: the Km in data set [1] came to 0.1 µM.

B2: Multidrug resistance-associated protein 1 (Homo sapiens) (protein)
chain: MALRGFCSADGSDPLWDWNVTWNTSNPDFTKCFQNTVLVWVPCFYLWACFPFYFLYLSRHDRGYIQMTPLNKTKTALGFLLWIVCWADLFYSFWERSRGIFLAPVFLVSPTLLGITMLLATFLIQLERRKGVQSSGIMLTFWLVALVCALAILRSKIMTALKEDAQVDLFRDITFYVYFSLLLIQLVLSCFSDRSPLFSETIHDPNPCPESSASFLSRITFWWITGLIVRGYRQPLEGSDLWSLNKEDTSEQVVPVLVKNWKKECAKTRKQPVKVVYSSKDPAQPKESSKVDANEEVEALIVKSPQKEWNPSLFKVLYKTFGPYFLMSFFFKAIHDLMMFSGPQILKLLIKFVNDTKAPDWQGYFYTVLLFVTACLQTLVLHQYFHICFVSGMRIKTAVIGAVYRKALVITNSARKSSTVGEIVNLMSVDAQRFMDLATYINMIWSAPLQVILALYLLWLNLGPSVLAGVAVMVLMVPVNAVMAMKTKTYQVAHMKSKDNRIKLMNEILNGIKVLKLYAWELAFKDKVLAIRQEELKVLKKSAYLSAVGTFTWVCTPFLVALCTFAVYVTIDENNILDAQTAFVSLALFNILRFPLNILPMVISSIVQASVSLKRLRIFLSHEELEPDSIERRPVKDGGGTNSITVRNATFTWARSDPPTLNGITFSIPEGALVAVVGQVGCGKSSLLSALLAEMDKVEGHVAIKGSVAYVPQQAWIQNDSLRENILFGCQLEEPYYRSVIQACALLPDLEILPSGDRTEIGEKGVNLSGGQKQRVSLARAVYSNADIYLFDDPLSAVDAHVGKHIFENVIGPKGMLKNKTRILVTHSMSYLPQVDVIIVMSGGKISEMGSYQELLARDGAFAEFLRTYASTEQEQDAEENGVTGVSGPGKEAKQMENGMLVTDSAGKQLQRQLSSSSSYSGDISRHHNSTAELQKAEAKKEETWKLMEADKAQTGQVKLSVYWDYMKAIGLFISFLSIFLFMCNHVSALASNYWLSLWTDDPIVNGTQEHTKVRLSVYGALGISQGIAVFGYSMAVSIGGILASRCLHVDLLHSILRSPMSFFERTPSGNLVNRFSKELDTVDSMIPEVIKMFMGSLFNVIGACIVILLATPIAAIIIPPLGLIYFFVQRFYVASSRQLKRLESVSRSPVYSHFNETLLGVSVIRAFEEQERFIHQSDLKVDENQKAYYPSIVANRWLAVRLECVGNCIVLFAALFAVISRHSLSAGLVGLSVSYSLQVTTYLNWLVRMSSEMETNIVAVERLKEYSETEKEAPWQIQETAPPSSWPQVGRVEFRNYCLRYREDLDFVLRHINVTINGGEKVGIVGRTGAGKSSLTLGLFRINESAEGEIIIDGINIAKIGLHDLRFKITIIPQDPVLFSGSLRMNLDPFSQYSDEEVWTSLELAHLKDFVSALPDKLDHECAEGGENLSVGQRQLVCLARALLRKTKILVLDEATAAVDLETDDLIQSTIRTQFEDCTVLTIAHRLNTIMDYTRVIVLDKGEIQEYGAPSDLLQQRGLFYSMAKDAGLV
B2: the Michaelis constant (Km) in data set [2] was found to be 12 µM.
